Assay [1] has as its target BAFF in human plasma (human (endogenous in plasma)). Nature of the assay: SEC.
For assay [2], the target named is BAFF 60-mer:mBaffR-Fc complex (human | murine, UniProt Q9Y275-1 134-285; Q9D8D0 1-71). The assay can be described thus: ELISA.
For assay [3], the target named is Recombinant BAFF 3-mer (Flag-tagged BAFF amino acid 134-285) (human, UniProt Q9Y275-1 134-285). Nature of the assay: SPR.
The target in assay [4] is Recombinant BAFF 60-mer (histidine-tagged BAFF amino acid 134-285) (human, UniProt Q9Y275-1 134-285). Nature of the assay: SPR.

In assay [1], BAFF in human plasma (natural protein) came in with a stoichiometry N of 3.

B1: Murine TACI-Fc (Fc fusion, UniProt Q9ET35 1-128, looked up)
chain: MAMAFCPKDQYWDSSRKSCVSCALTCSQRSQRTCTDFCKFINCRKEQGRYYDHLLGACVSCDSTCTQHPQQCAHFCEKRPRSQANLQPELGRPQAGEVEVRSDNSGRHQGSEHGPGLRLSSDQLTLYC
modifications: biotin (EZ-Link Sulfo-NHS-Biotin), in the ELISA only
B1: the binding result in assay [2] is reported as “binds”.

B2: mBaffR-Fc (murine BR3 ecto-domain fused to murine IgG1 Fc fragment) (Fc fusion, UniProt Q9D8D0 1-71, looked up)
chain: MGARRLRVRSQRSRDSSVPTQCNQTECFDPLVRNCVSCELFHTPDTGHTSSLEPGTALQPQEGSALRPDVA
As for B2, the binding result in assay [3] and in assay [4] was “binds” in each case.

Regarding MAQQCFHSEYFDSLLHACKPCHLRCSNPPATCQPYCDPSVTSSVKGTYT (Fc fusion, UniProt O88472 1-49, looked up, not fully specified; biotin (EZ-Link Sulfo-NHS-Biotin), in the ELISA only) [Murine BCMA-Fc], in assay [2], the binding result is reported as “binds”.

Source of the values: PMC10691782 (Cellular immunology, 2022).
